According to the supplement of paper PMC9112550, “Optimization of the antimicrobial peptide Bac7 by deep mutational scanning” (BMC Biology, 2022):

test system: Escherichia coli TOP10; assay: shrunken log2 fold change of peptide-encoding DNA abundance (4.5 h post-induction vs induction); higher = less antimicrobial activity (less host growth inhibition); conditions: time post-induction: 4.5 h; library: site-saturation at positions 5, 18, 19, 20
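Also: peptides expressed intracellularly from a pBAD plasmid library in pooled LB shake-flask culture, induced with 0.3% L-arabinose, DNA abundance read by NGS, three biological replicates, DESeq2 with apeglm shrinkage.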

Row | Sequence | shrunken log2 fold change
1 | RRIRHRPPRLPRPRPRPGTIPRP | -0.00536
2 | RRIRRRPPRLPRPRPRPNIWPRP | 0.134
3 | RRIRTRPPRLPRPRPRPERMPRP | 0.275
4 | RRIRMRPPRLPRPRPRPGAYPRP | 0.0666
5 | RRIRSRPPRLPRPRPRPQKRPRP | -0.343
6 | RRIRWRPPRLPRPRPRPYCLPRP | -0.633
7 | RRIRLRPPRLPRPRPRPCVEPRP | -0.124
8 | RRIRQRPPRLPRPRPRPPENPRP | 0.0912
9 | RRIRWRPPRLPRPRPRPKYVPRP | -0.0314
10 | RRIRERPPRLPRPRPRPPYQPRP | -0.1
11 | RRIRMRPPRLPRPRPRPKMRPRP | 1.21
12 | RRIRTRPPRLPRPRPRPEQRPRP | -0.000852
13 | RRIRERPPRLPRPRPRPFKVPRP | 0.14
14 | RRIRDRPPRLPRPRPRPFQSPRP | 0.0407
15 | RRIRDRPPRLPRPRPRPSEMPRP | -0.0135
16 | RRIRERPPRLPRPRPRPVRDPRP | 0.337
17 | RRIRHRPPRLPRPRPRPQHGPRP | 0.00949
18 | RRIRYRPPRLPRPRPRPCFSPRP | -0.594
19 | RRIRPRPPRLPRPRPRPQVVPRP | -0.00675
20 | RRIRDRPPRLPRPRPRPWCHPRP | -0.407
21 | RRIRMRPPRLPRPRPRPTRPPRP | 1.32
22 | RRIRRRPPRLPRPRPRPPMPPRP | 0.568
23 | RRIRPRPPRLPRPRPRPYSTPRP | -0.729
24 | RRIRVRPPRLPRPRPRPGYIPRP | -0.608
25 | RRIRQRPPRLPRPRPRPMKGPRP | 0.0391

Row | Sequence | shrunken log2 fold change
26 | RRIRDRPPRLPRPRPRPTCLPRP | 0.653
27 | RRIRPRPPRLPRPRPRPYPTPRP | -0.11
28 | RRIRDRPPRLPRPRPRPQWCPRP | 0.0917
29 | RRIRFRPPRLPRPRPRPLQLPRP | -0.51
30 | RRIRDRPPRLPRPRPRPRGRPRP | 0.614
31 | RRIRLRPPRLPRPRPRPSYIPRP | -0.427
32 | RRIRHRPPRLPRPRPRPCQNPRP | -0.0608
33 | RRIRVRPPRLPRPRPRPYPSPRP | -0.422
34 | RRIRQRPPRLPRPRPRPWMRPRP | 0.131
35 | RRIRYRPPRLPRPRPRPQAHPRP | -0.149
36 | RRIRCRPPRLPRPRPRPSISPRP | -0.136
37 | RRIRSRPPRLPRPRPRPTKEPRP | -0.441
38 | RRIRHRPPRLPRPRPRPPMWPRP | 1.04
39 | RRIRQRPPRLPRPRPRPSENPRP | -0.0264
40 | RRIRARPPRLPRPRPRPFTGPRP | -0.00992
41 | RRIRKRPPRLPRPRPRPFKDPRP | -0.0776
42 | RRIRIRPPRLPRPRPRPGRQPRP | 0.172
43 | RRIRLRPPRLPRPRPRPGEHPRP | -0.145
44 | RRIRARPPRLPRPRPRPFCYPRP | 0.0576
45 | RRIRGRPPRLPRPRPRPGPTPRP | 1.51
46 | RRIRDRPPRLPRPRPRPEAFPRP | 0.119
47 | RRIRKRPPRLPRPRPRPPYYPRP | -0.291
48 | RRIRWRPPRLPRPRPRPELVPRP | 0.605
49 | RRIRPRPPRLPRPRPRPYSWPRP | -0.046
50 | RRIRSRPPRLPRPRPRPHMRPRP | -0.0431

Row | Sequence | shrunken log2 fold change
51 | RRIRQRPPRLPRPRPRPWPMPRP | -0.0342
52 | RRIRVRPPRLPRPRPRPLKLPRP | -0.337
53 | RRIRSRPPRLPRPRPRPDTRPRP | -0.337
54 | RRIRMRPPRLPRPRPRPWTFPRP | 0.055
55 | RRIRMRPPRLPRPRPRPNTFPRP | 0.105
56 | RRIRDRPPRLPRPRPRPKYPPRP | 0.0118
57 | RRIRNRPPRLPRPRPRPHICPRP | -0.0994
58 | RRIRSRPPRLPRPRPRPCLHPRP | -0.0514
59 | RRIRKRPPRLPRPRPRPEVDPRP | 3.04
60 | RRIRMRPPRLPRPRPRPFDNPRP | 0.0191
61 | RRIRGRPPRLPRPRPRPRLDPRP | 0.692
62 | RRIRYRPPRLPRPRPRPKNWPRP | -0.3
63 | RRIRSRPPRLPRPRPRPYLEPRP | -0.118
64 | RRIRFRPPRLPRPRPRPKGDPRP | 0.054
65 | RRIRTRPPRLPRPRPRPQYFPRP | -0.395
66 | RRIRLRPPRLPRPRPRPYMSPRP | -0.0167
67 | RRIRQRPPRLPRPRPRPMGDPRP | 0.0563
68 | RRIRVRPPRLPRPRPRPSPGPRP | 0.252
69 | RRIRWRPPRLPRPRPRPPYWPRP | 0.204
70 | RRIRGRPPRLPRPRPRPDGVPRP | 0.368
71 | RRIRNRPPRLPRPRPRPNRTPRP | -0.0201
72 | RRIRLRPPRLPRPRPRPMCSPRP | 0.382
73 | RRIRVRPPRLPRPRPRPFQQPRP | -0.014
74 | RRIRHRPPRLPRPRPRPGALPRP | -0.00348
75 | RRIRVRPPRLPRPRPRPPFLPRP | 1.11
